Measured values published in patent publication US20230103631A1, “PEPTIDES AS SELECTIVE GIP RECEPTOR AGONISTS” (Sanofi, priority 2020, published 2023).
*1 amine or outer side, *2 acyl side, *3 side chain or, on linkers, in order; H or OH if unused. Where no end group is shown, it is not given here. Side-chain parts run from the residue outwards. [ ]: non-standard residue; d: D form. The star is where a group is joined. C20 diacid = O=C(O)CCCCCCCCCCCCCCCCCCC(=O)*; C18 diacid = O=C(O)CCCCCCCCCCCCCCCCC(=O)*; γGlu = O=C(O)[C@H](CCC(=O)[*:2])N[*:1]; NMeY = CN[C@@H](Cc1ccc(O)cc1)C(=O)O; AEEA = NCCOCCOCC(=O)O; Aib = CC(C)(N)C(=O)O

T1: human GIP receptor (human, UniProt P48546 22-466)
T1 sequence (looked up): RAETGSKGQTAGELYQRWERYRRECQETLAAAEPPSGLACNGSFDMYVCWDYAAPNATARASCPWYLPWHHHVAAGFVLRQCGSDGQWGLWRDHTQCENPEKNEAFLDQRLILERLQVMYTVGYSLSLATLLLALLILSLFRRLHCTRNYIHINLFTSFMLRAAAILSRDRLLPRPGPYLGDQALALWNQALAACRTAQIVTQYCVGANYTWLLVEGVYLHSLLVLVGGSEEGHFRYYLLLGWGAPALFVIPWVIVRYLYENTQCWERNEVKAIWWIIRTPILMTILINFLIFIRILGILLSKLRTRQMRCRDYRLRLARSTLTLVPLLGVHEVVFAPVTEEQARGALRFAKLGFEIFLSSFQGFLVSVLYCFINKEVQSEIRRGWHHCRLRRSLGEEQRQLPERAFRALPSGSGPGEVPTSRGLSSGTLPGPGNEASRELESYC


Key:
[1] = molecular target: T1, human GIP receptor; assay: cell-based or functional assay
[2] = molecular target: human GLP-1 receptor (human, UniProt P43220 24-463); assay: cell-based or functional assay

| Binder | EC50 hGIPR 0% HSA, cAMP in HEK-293 cells [1] | EC50 hGIPR 0.1% HSA, cAMP in HEK-293 cells [1] | EC50 hGLP-1R 0% HSA, cAMP in HEK-293 cells [2] |
| --- | --- | --- | --- |
| Y[Aib]EGTFISDLSI[Aib]K([AEEA-AEEA-γGlu-γGlu-C20 diacid])DRIHQEEFIEWLLAQGPSSGAPPPS-NH2 (N-terminus assumed; SMILES CC[C@H](C)[C@H](NC(=O)[C@H](Cc1ccccc1)NC(=O)[C@H](CCC(=O)O)NC(=O)[C@H](CCC(=O)O)NC(=O)[C@H](CCC(N)=O)NC(=O)[C@H](Cc1c[nH]cn1)NC(=O)[C@@H](NC(=O)[C@H](CCCNC(=N)N)NC(=O)[C@H](CC(=O)O)NC(=O)[C@H](CCCCNC(=O)COCCOCCNC(=O)COCCOCCNC(=O)CC[C@H](NC(=O)CC[C@H](NC(=O)CCCCCCCCCCCCCCCCCCC(=O)O)C(=O)O)C(=O)O)NC(=O)C(C)(C)NC(=O)[C@@H](NC(=O)[C@H](CO)NC(=O)[C@H](CC(C)C)NC(=O)[C@H](CC(=O)O)NC(=O)[C@H](CO)NC(=O)[C@@H](NC(=O)[C@H](Cc1ccccc1)NC(=O)[C@@H](NC(=O)CNC(=O)[C@H](CCC(=O)O)NC(=O)C(C)(C)NC(=O)[C@@H](N)Cc1ccc(O)cc1)[C@@H](C)O)[C@@H](C)CC)[C@@H](C)CC)[C@@H](C)CC)C(=O)N[C@@H](CCC(=O)O)C(=O)N[C@@H](Cc1c[nH]c2ccccc12)C(=O)N[C@@H](CC(C)C)C(=O)N[C@@H](CC(C)C)C(=O)N[C@@H](C)C(=O)N[C@@H](CCC(N)=O)C(=O)NCC(=O)N1CCC[C@H]1C(=O)N[C@@H](CO)C(=O)N[C@@H](CO)C(=O)NCC(=O)N[C@@H](C)C(=O)N1CCC[C@H]1C(=O)N1CCC[C@H]1C(=O)N1CCC[C@H]1C(=O)N[C@@H](CO)C(N)=O) [SEQ ID NO: 15] | 0.34 pM | 7.65 pM | > 10000 pM |
| Y[Aib]EGTFISDLSI[Aib]K([AEEA-AEEA-AEEA-γGlu-C18 diacid])DRIHQEEFIEWLLAQGPSSGAPPPS-NH2 (N-terminus assumed; SMILES CC[C@H](C)[C@H](NC(=O)[C@H](Cc1ccccc1)NC(=O)[C@H](CCC(=O)O)NC(=O)[C@H](CCC(=O)O)NC(=O)[C@H](CCC(N)=O)NC(=O)[C@H](Cc1c[nH]cn1)NC(=O)[C@@H](NC(=O)[C@H](CCCNC(=N)N)NC(=O)[C@H](CC(=O)O)NC(=O)[C@H](CCCCNC(=O)COCCOCCNC(=O)COCCOCCNC(=O)COCCOCCNC(=O)CC[C@H](NC(=O)CCCCCCCCCCCCCCCCC(=O)O)C(=O)O)NC(=O)C(C)(C)NC(=O)[C@@H](NC(=O)[C@H](CO)NC(=O)[C@H](CC(C)C)NC(=O)[C@H](CC(=O)O)NC(=O)[C@H](CO)NC(=O)[C@@H](NC(=O)[C@H](Cc1ccccc1)NC(=O)[C@@H](NC(=O)CNC(=O)[C@H](CCC(=O)O)NC(=O)C(C)(C)NC(=O)[C@@H](N)Cc1ccc(O)cc1)[C@@H](C)O)[C@@H](C)CC)[C@@H](C)CC)[C@@H](C)CC)C(=O)N[C@@H](CCC(=O)O)C(=O)N[C@@H](Cc1c[nH]c2ccccc12)C(=O)N[C@@H](CC(C)C)C(=O)N[C@@H](CC(C)C)C(=O)N[C@@H](C)C(=O)N[C@@H](CCC(N)=O)C(=O)NCC(=O)N1CCC[C@H]1C(=O)N[C@@H](CO)C(=O)N[C@@H](CO)C(=O)NCC(=O)N[C@@H](C)C(=O)N1CCC[C@H]1C(=O)N1CCC[C@H]1C(=O)N1CCC[C@H]1C(=O)N[C@@H](CO)C(N)=O) [SEQ ID NO: 12] | 0.26 pM | 2.38 pM | > 10000 pM |
| Y[Aib]EGTFISDLSI[Aib]K([Gly-Gly-Gly-γGlu-C18 diacid])DRIHQEEFIEWLLAQGPSSGAPPPS-NH2 (N-terminus assumed; SMILES CC[C@H](C)[C@H](NC(=O)[C@H](Cc1ccccc1)NC(=O)[C@H](CCC(=O)O)NC(=O)[C@H](CCC(=O)O)NC(=O)[C@H](CCC(N)=O)NC(=O)[C@H](Cc1c[nH]cn1)NC(=O)[C@@H](NC(=O)[C@H](CCCNC(=N)N)NC(=O)[C@H](CC(=O)O)NC(=O)[C@H](CCCCNC(=O)CNC(=O)CNC(=O)CNC(=O)CC[C@H](NC(=O)CCCCCCCCCCCCCCCCC(=O)O)C(=O)O)NC(=O)C(C)(C)NC(=O)[C@@H](NC(=O)[C@H](CO)NC(=O)[C@H](CC(C)C)NC(=O)[C@H](CC(=O)O)NC(=O)[C@H](CO)NC(=O)[C@@H](NC(=O)[C@H](Cc1ccccc1)NC(=O)[C@@H](NC(=O)CNC(=O)[C@H](CCC(=O)O)NC(=O)C(C)(C)NC(=O)[C@@H](N)Cc1ccc(O)cc1)[C@@H](C)O)[C@@H](C)CC)[C@@H](C)CC)[C@@H](C)CC)C(=O)N[C@@H](CCC(=O)O)C(=O)N[C@@H](Cc1c[nH]c2ccccc12)C(=O)N[C@@H](CC(C)C)C(=O)N[C@@H](CC(C)C)C(=O)N[C@@H](C)C(=O)N[C@@H](CCC(N)=O)C(=O)NCC(=O)N1CCC[C@H]1C(=O)N[C@@H](CO)C(=O)N[C@@H](CO)C(=O)NCC(=O)N[C@@H](C)C(=O)N1CCC[C@H]1C(=O)N1CCC[C@H]1C(=O)N1CCC[C@H]1C(=O)N[C@@H](CO)C(N)=O) [SEQ ID NO: 16] | 0.19 pM | 2.55 pM | > 10000 pM |
| Y[Aib]EGTFISDLSI[Aib]K([AEEA-AEEA-γGlu-γGlu-C18 diacid])DRIHQEEFIEWLLAQGPSSGAPPPS-NH2 (N-terminus assumed; SMILES CC[C@H](C)[C@H](NC(=O)[C@H](Cc1ccccc1)NC(=O)[C@H](CCC(=O)O)NC(=O)[C@H](CCC(=O)O)NC(=O)[C@H](CCC(N)=O)NC(=O)[C@H](Cc1c[nH]cn1)NC(=O)[C@@H](NC(=O)[C@H](CCCNC(=N)N)NC(=O)[C@H](CC(=O)O)NC(=O)[C@H](CCCCNC(=O)COCCOCCNC(=O)COCCOCCNC(=O)CC[C@H](NC(=O)CC[C@H](NC(=O)CCCCCCCCCCCCCCCCC(=O)O)C(=O)O)C(=O)O)NC(=O)C(C)(C)NC(=O)[C@@H](NC(=O)[C@H](CO)NC(=O)[C@H](CC(C)C)NC(=O)[C@H](CC(=O)O)NC(=O)[C@H](CO)NC(=O)[C@@H](NC(=O)[C@H](Cc1ccccc1)NC(=O)[C@@H](NC(=O)CNC(=O)[C@H](CCC(=O)O)NC(=O)C(C)(C)NC(=O)[C@@H](N)Cc1ccc(O)cc1)[C@@H](C)O)[C@@H](C)CC)[C@@H](C)CC)[C@@H](C)CC)C(=O)N[C@@H](CCC(=O)O)C(=O)N[C@@H](Cc1c[nH]c2ccccc12)C(=O)N[C@@H](CC(C)C)C(=O)N[C@@H](CC(C)C)C(=O)N[C@@H](C)C(=O)N[C@@H](CCC(N)=O)C(=O)NCC(=O)N1CCC[C@H]1C(=O)N[C@@H](CO)C(=O)N[C@@H](CO)C(=O)NCC(=O)N[C@@H](C)C(=O)N1CCC[C@H]1C(=O)N1CCC[C@H]1C(=O)N1CCC[C@H]1C(=O)N[C@@H](CO)C(N)=O) [SEQ ID NO: 14] | 0.23 pM | 1.56 pM | > 10000 pM |
| [NMeY][Aib]EGTFISDLSI[Aib]K([AEEA-AEEA-γGlu-C18 diacid])DRIHQEEFIEWLLAQGPSSGAPPPS-NH2 (N-terminus assumed; SMILES CC[C@H](C)[C@H](NC(=O)[C@H](Cc1ccccc1)NC(=O)[C@H](CCC(=O)O)NC(=O)[C@H](CCC(=O)O)NC(=O)[C@H](CCC(N)=O)NC(=O)[C@H](Cc1c[nH]cn1)NC(=O)[C@@H](NC(=O)[C@H](CCCNC(=N)N)NC(=O)[C@H](CC(=O)O)NC(=O)[C@H](CCCCNC(=O)COCCOCCNC(=O)COCCOCCNC(=O)CC[C@H](NC(=O)CCCCCCCCCCCCCCCCC(=O)O)C(=O)O)NC(=O)C(C)(C)NC(=O)[C@@H](NC(=O)[C@H](CO)NC(=O)[C@H](CC(C)C)NC(=O)[C@H](CC(=O)O)NC(=O)[C@H](CO)NC(=O)[C@@H](NC(=O)[C@H](Cc1ccccc1)NC(=O)[C@@H](NC(=O)CNC(=O)[C@H](CCC(=O)O)NC(=O)C(C)(C)NC(=O)[C@H](Cc1ccc(O)cc1)NC)[C@@H](C)O)[C@@H](C)CC)[C@@H](C)CC)[C@@H](C)CC)C(=O)N[C@@H](CCC(=O)O)C(=O)N[C@@H](Cc1c[nH]c2ccccc12)C(=O)N[C@@H](CC(C)C)C(=O)N[C@@H](CC(C)C)C(=O)N[C@@H](C)C(=O)N[C@@H](CCC(N)=O)C(=O)NCC(=O)N1CCC[C@H]1C(=O)N[C@@H](CO)C(=O)N[C@@H](CO)C(=O)NCC(=O)N[C@@H](C)C(=O)N1CCC[C@H]1C(=O)N1CCC[C@H]1C(=O)N1CCC[C@H]1C(=O)N[C@@H](CO)C(N)=O) [SEQ ID NO: 13] | 0.2 pM | 1.76 pM | > 10000 pM |
